Results as given in article PMC2776984 (PLoS Genetics, 2009).

B1: rhGDF5 (recombinant human Growth & Differentiation Factor 5) (ligand)
chain: RQGKRPSKNLKARCSRKALHVNFKDMGWDDWIIAPLEYEAFHCEGLCEFPLRSHLEPTNHAVIQTLMNSMDPESTPPTCCVPTRLSPISILFIDSANNVVYKQYEDMVVESCGCR
notes: GDF5 (CDMP1), human, recombinant; also called CDMP1; wild-type GDF5; source: bought/supplied: Biopharm GmbH

Experiments:
Test in all cases: SPR; BIA2000 system (Biacore); receptor ectodomains immobilised, GDF5 proteins as analyte; apparent KD; n = 6; as described in ref. 16
[1] = target: BMPR1Aecd (soluble ectodomain of rhBMPR1A) (human) (UniProt P36894)
BMPR1Aecd (soluble ectodomain of rhBMPR1A) (human), sequence (P36894 24-152): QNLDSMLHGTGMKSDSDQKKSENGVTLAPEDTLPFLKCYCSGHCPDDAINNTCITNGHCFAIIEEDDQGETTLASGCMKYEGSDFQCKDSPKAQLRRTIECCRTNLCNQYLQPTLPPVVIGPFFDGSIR

[2] = target: BMPR1Becd (soluble ectodomain of rhBMPR1B) (human) (UniProt O00238)
[3] = target: T1, BMPR1Aecd (soluble ectodomain of rhBMPR1A) (human, UniProt P36894 24-152); settings: both partners purified
T1 construct: BMPR1A, BMP type I receptor, human (rh), extracellular domain; also called BMPR1A ectodomain
T1 sequence (P36894 24-152): as above

[4] = target: B1; settings: both partners purified

Molecule: rhN445T GDF5 (from UniProt P43026 28-501) (ligand)
- Kd [1]: 19.5 nM
- Kd [2]: 1.2 nM

Molecule: B1
- Kd [3]: 17 ± 4.6 nM

B2: BMPR1Becd (soluble ectodomain of rhBMPR1B) (receptor, human, UniProt O00238 14-126, looked up)
chain: KKEDGESTAPTPRPKVLRCKCHHHCPEDSVNNICSTDGYCFTMIEEDDSGLPVVTSGCLGLEGSDFQCRDTPIPHQRRSIECCTERNECNKDLHPTLPPLKNRDFVDGPIHHR
notes: BMPR1B, BMP type I receptor, human (rh), extracellular domain; also called BMPR1B ectodomain
- Kd [4]: 1.1 ± 0.2 nM
